Assay results from the supplement of paper PMC9170038.

System: MS2 coat protein
Test: apparent KD of MS2 coat protein; designed switch direction (-1 OFF switch, 1 ON switch): -1; higher = weaker reporter binding
In short: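 Normalised cluster fluorescence was curve-fitted, and each design's median over clusters is its apparent KD. Before this, SNAP-549-labelled MS2 coat protein was titrated from 0.7 or 1.5 nM, doubling to 3 µM, over RNA switches transcribed on Illumina chips by stalled E. coli RNA polymerase. Titrations had no input, 200 uM small-molecule ligand, or an oligonucleotide input, and steps lasted 0.8–1.5 h (lowest) to 10–20 min (highest).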

[1] = input ligand: microRNA oligo, concentration not stated
[2] = Eterna round: R95, input ligand: microRNA oligo, concentration not stated
[3] = Eterna round: R95, input ligand: FMN 200 uM
[4] = Eterna round: R95, input ligand: none

Row | Sequence | apparent KD of MS2 coat protein (input ligand: FMN 200 uM) | apparent KD of MS2 coat protein (input ligand: none) | other results
1 | CCAACUAAUUAGGAUAUUAAGGACAUCAGUAAGUAAGAAGGGAUUACAUGAGGAUCACCCAUGUGGUCCUCGGG [Eternabot (L2) Solution 57] (Eterna round: R97, puzzle: Exclusion 6) | 0.226 µM | 0.147 µM | –
2 | CCAAGCUUAUUCAUUAACCACAUGAGGAUCACCCAUGUAUAGGCAAUUAUGACUGGGCAAUGUGGUGCUCGUCUUAU [Sensor-V1 #28] (Eterna round: R97, puzzle: Sensor, turn-off variant 1) | 0.0395 µM | 0.0413 µM | –
3 | CCAGCGGACAAAGGAUAUUGCGGUGACCGGCUCGGCGUACCGAGCCUACAUGAGGAUCACCCAUGUAAGAAGGUUGUCGUAGGA [Mat - Exclusion NG 2 - Mod of JL - D73] (Eterna round: R96, puzzle: Exclusion NG 2) | 0.0561 µM | 0.0195 µM | apparent KD of MS2 coat protein [1]: 0.0132 µM
4 | CCAGCGUAUGUGAGGAUAUGCUGGUCCUUGGAUCAGCAGAAGGCACAUGAGGAUCACCCAUGUGAGAGCGUUGG [JL bmx4 3.37] (Eterna round: R96, puzzle: Brourd's mod of Exclusion 4) | 0.187 µM | 0.0304 µM | apparent KD of MS2 coat protein [1]: 0.0256 µM
5 | CCAGCGUAUGUGAGGAUAUGCUGGUCCUUGGAUCAGCAGAAGGCACAUGAGGAUCACCCAUGUGAGAGCGUUGG [JL bmx4 3.37] (puzzle: Brourd's mod of Exclusion 4) | – | – | apparent KD of MS2 coat protein [2]: 0.0214 µM
6 | CCAGGAAGGCAGGAUAUCCAAAGCCGUCCCGGCGGAGAAGGGCUGACUUGAGGAUCACCCAAGUGAUGCCUAAC [Aratquve] (Eterna round: R97, puzzle: Exclusion 6) | 0.0152 µM | 0.0148 µM | –
7 | CCAUAGGGAGGAUAUCCAAUAUAUGACAUGAGGAUCACCCAUGUUUCCACUCGUACCUCCGGAGAAGGCCCAUAAC [Ex5 #8] (Eterna round: R97, puzzle: Exclusion 5) | 0.0244 µM | 0.0214 µM | –
8 | CCAUGUCCGGAGGAUAUGCGCAGACUUACUGCAGCAGAAGGUUGGACUUGAGGAUCACCCAAGUGACCAUUUGU [Esrebionra] (Eterna round: R97, puzzle: Exclusion 6) | 0.445 µM | 0.036 µM | –
9 | CCCAAAGGGACAAGCUUUUACAUGAGGAUCACCCAUGUUUUGGGAGCUCGUCUUAUGGGCCCGGGAAACCCGGGCCC [-38, -58.7 kcal, A 22%] (Eterna round: R97, puzzle: Sensor, turn-off variant 1) | 0.0171 µM | 0.0172 µM | –
10 | CCCAGAGCGUAAGGAUAUACAUGAGGAUCACCCAUGUCUACAAUAAUAGUACUAUAUGAAGUCGUGUAGAAGGUACGCGCAGGU [Eternabot solution 46] (Eterna round: R96, puzzle: Exclusion NG 2) | – | – | apparent KD of MS2 coat protein [1]: 0.0307 µM
11 | CCCAGUUAGAGAGGAUAUCGUACAUGAGGAUCACCCAUGUAAUAAAUGAGGAUUUCGGGUGUCUACGAGAAGGCUCGGAUAGGC [Ostracism 30 - Jieux - Exclusion NG 2] (Eterna round: R96, puzzle: Exclusion NG 2) | 0.0758 µM | 0.0359 µM | apparent KD of MS2 coat protein [1]: 0.0271 µM
12 | CCCAGUUAGUGAGGAUAUCUUACAUGAGGAUCACCCAUGUAAUAAAUGAGGAUUUCGGGUGUCUAAGAGAAGGCACGGAUAGGC [Ostracism 25 - Jieux - Exclusion NG 2] (Eterna round: R96, puzzle: Exclusion NG 2) | 0.0271 µM | 0.027 µM | apparent KD of MS2 coat protein [1]: 0.0167 µM
13 | CCCAUGUCAGGAUAUCUAAGAGAGGAUCAGCCCUCUCCUCCGGAGAAGGGACAUGAGGAUCACCCAUGUAAAAC [Zasorequ] (puzzle: Exclusion 4) | – | – | apparent KD of MS2 coat protein [3]: 0.0305 µM; apparent KD of MS2 coat protein [2]: 0.145 µM; apparent KD of MS2 coat protein [4]: 0.204 µM
14 | CCCAUGUCAGGAUAUUAAUUGAGCAGAAAGCCCUGUUCACUUGAGAAGGGACAUGAGGAUCACCCAUGUAAAAC [Belexeedte] (Eterna round: R97, puzzle: Exclusion 4) | 0.0192 µM | 0.507 µM | –
15 | CCCGAGUUAGGAUAUAAACCAAAGUAACCAGCAGCUUAGCUUUAGAAGGAACAUGAGGAUCACCCAUGUGGUCU [Eternabot (L2) Solution 70] (Eterna round: R97, puzzle: Exclusion 4) | 0.119 µM | 0.107 µM | –
16 | CCCGUGUUAGGAUAUACGGCACACCCGCCAGCGGGUAUAUAGUAGAAGGAACAUGAGGAUCACCCAUGUAUAGC [Sobiza] (puzzle: Exclusion 4) | – | – | apparent KD of MS2 coat protein [2]: 0.0156 µM

Row | Sequence | apparent KD of MS2 coat protein (input ligand: FMN 200 uM) | apparent KD of MS2 coat protein (input ligand: none) | other results
17 | CCCUCACAUGAGGAUCACCCAUGUCAGGAUAUCUCAGUGCAUCCACACGGACGCAUCAAGAGAAGGGACAAAAC [Ququ] (Eterna round: R97, puzzle: Exclusion 1) | 0.0278 µM | 0.0184 µM | –
18 | CCCUCACAUGAGGAUCACCCAUGUUAGGAUAUGGGAGGUACCUGCGUGAGCGCACCACCCAGAAGGGACCAGGC [Eternabot (L2) Solution 4] (Eterna round: R97, puzzle: Exclusion 1) | 0.13 µM | 0.159 µM | –
19 | CCGAAACAUGAGGAUCACCCAUGUCAGGAUAUUCCAAAAUCGUCGAAAGACGAUAACAGAAGAAGGGACAUCGG [Fiskxlusion 1 - Jieux - Exclusion 1] (Eterna round: R97, puzzle: Exclusion 1) | 0.0937 µM | 0.058 µM | –
20 | CCGAAUAUGCAGGAUAUCGUAUCGGAGACGAUACGAGAAGGGCAAACAUGAGGAUCACCCAUGUUCCUUAACGG [Mat - Exclusion 6 - Eli Mod - D75] (puzzle: Exclusion 6) | – | – | apparent KD of MS2 coat protein [2]: 0.0159 µM
21 | CCGACGUGAGGAUAUCCAUCUGGAUCAGACAAGAUCCUGAUGGAGAAGGCACAUGAGGAUCACCCAUGUUACGG [Mat - Exclusion 4 - Eli Mod - D59] (Eterna round: R97, puzzle: Exclusion 4) | 0.738 µM | 0.412 µM | –
22 | CCGAUCAGUGUCAGGAUAUCUACAGGACUGCCUCGAGAGAAGGGACAUGAGGAUCACCCAUGUACCCGGGCAAG [BmEX4 B.2] (Eterna round: R97, puzzle: Brourd's mod of Exclusion 4) | 0.015 µM | 0.0128 µM | –
23 | CCGAUGUCAGGAUAUAGCGGUCGCUGCCACGGUGGAGUCUGCUAGAAGGGACAUGAGGAUCACCCAUGUCGAAC [Eternabot (Original) Solution 49] (Eterna round: R97, puzzle: Exclusion 4) | 0.0577 µM | 0.0234 µM | –
24 | CCGAUGUCAGGAUAUCGUGCAUACAACGAAAGUUCUAUGUGCGAGAAGGGACAUGAGGAUCACCCAUGUUACGG [Omei Ex4 A2] (Eterna round: R97, puzzle: Exclusion 4) | 0.131 µM | 0.465 µM | –
25 | CCGCUACAUGAGGAUCACCCAUGUCAGGAUAUCGUACGUUCGUCGAUAGACGAUCGUACGAGAAGGGUGUGCGG [Mat - Exclusion 1 - Eli Mod - D36] (Eterna round: R97, puzzle: Exclusion 1) | 0.0814 µM | 0.139 µM | –
26 | CCGCUGUGAGGAUAUUAGUAGUAGUCAGAAAAGACUAUUACUGAGAAGGCACAUGAGGAUCACCCAUGUUGCGG [Mat - Exclusion 4 - Eli Mod - D48] (Eterna round: R97, puzzle: Exclusion 4) | 0.0339 µM | 0.0382 µM | –
27 | CCGGAAAGGAAGGAUAUGCUAGACGAAAGUCUAGCAGAAGGUCCUACAUGAGGAUCACCCAUGUGGUCCUCCGG [Eli x6 4.06] (Eterna round: R97, puzzle: Exclusion 6) | 0.298 µM | 1.47 µM | –
28 | CCGGAAAUACAGGAUAUAGGAGUCGAUAGACUCCUAGAAGGGUAUACAUGAGGAUCACCCAUGUGUCCUACCGG [Fiskers Ex 6 - 70] (puzzle: Exclusion 6) | – | – | apparent KD of MS2 coat protein [2]: 0.0228 µM
29 | CCGGAACAUGAGGAUCACCCAUGUCAGGAUAUCUCAAAAUCGUCGAAAGACGAUAACAAGAGAAGGGACACCGG [Eli x1 4.30] (Eterna round: R97, puzzle: Exclusion 1) | 0.0209 µM | 0.0164 µM | –
30 | CCGGAAGUACAGGAUAUCGUAACGGAAACGUUACGAGAAGGGUAUACAUGAGGAUCACCCAUGUGUCCUACCGG [Mat - Exclusion 6 - Eli Mod - D93] (puzzle: Exclusion 6) | – | – | apparent KD of MS2 coat protein [2]: 0.0226 µM
31 | CCGGAAUUGGAGGAUAUAGGAGUCGAUAGACACCUAGAAGGUCAGACAUGAGGAUCACCCAUGUGUCCUACCGG [Fiskers Ex 6 - 87] (puzzle: Exclusion 6) | – | – | apparent KD of MS2 coat protein [3]: 0.0199 µM; apparent KD of MS2 coat protein [2]: 0.0183 µM; apparent KD of MS2 coat protein [4]: 0.0178 µM
32 | CCGGCGGUAGGAUAUACAAUUGUAAAAGGCAGGUGGUGUCAACAUGAGGAUCACCCAUGUAGAAGGACCUUAAA [EX2 C.26] (Eterna round: R97, puzzle: Exclusion 2) | 0.0384 µM | 0.0224 µM | –
